We go through 3 molecules from patent US8257698B2, “Protein engineering of monoacylglycerol lipase (MGLL)” (Janssen Pharmaceutica N.V., priority 2008, dated 2012).

Substitutions are numbered along the chain they refer to. Names and notes keep the numbering of the source.

The subject of data set [1] is MGLL. The data set is described as follows: Kinetic analysis: hydrolysis of Coumarin Arachidonate (C-A) by MGLL constructs. The format is biochemical, human. As to conditions: estimated; limited by solubility of C-A; read-out: apparent KM for C-A. From the text:
(§1) A small fluorescent substrate, 4-methyl coumarin butyrate (4MC-B) was used to compare the activity of the engineered mutants to the activity of wt-MGLL (hMGLL 1-303) (SEQ ID NO: 3). The catalytic efficiency (kcat/KM) for the hydrolysis of the 4MC-B was similar for wt-MGLL (hMGLL 1-303) (SEQ ID NO: 3) and all MGLL mutants tested (Table 2). A larger more aliphatic fluorescent substrate, Coumarin Arachidonate (C-A), structurally more closely related to the MGLL natural substrate, 2-AG, was used to compare the activity of wt-MGLL (hMGLL 1-303) (SEQ ID NO: 3) to TEV cleaved mut-MGLL (hMGLL 1-303 L169S, L176S) (SEQ ID NO: 5).
(§2) The Michaelis-Menten parameters for the hydrolysis of 4-methylcoumarin butyrate (4MC-B) and coumarin arachidonate (C-A) substrate were determined using 4-5 nM of MGLL in 20 mM Pipes pH 7 and 150 mM NaCl at 37° C. The change in fluorescence due to substrate hydrolysis was monitored using excitation/emission wavelengths of 335/440 in a Safire II instrument from Tecan. The hyperbolic rates versus substrate concentration curves for the hydrolysis of 4MC-B were fit to the Michaelis-Menten equation using Excel.
The apparent kcat/KM ratio for the hydrolysis of C-A was determined at [S]<<KM. […] The kcat/KM values reported are the average from independent values determined from five substrate concentrations ranging from 700 to 40 nM.

Data set [2] concerns MGLL. Nature of the data set: Kinetic analysis: hydrolysis of 4-methyl coumarin butyrate (4MC-B) by MGLL constructs. The format is biochemical, human. The settings on record: substrate 4MC-B; 4-5 nM MGLL, 20 mM Pipes pH 7, 150 mM NaCl, 37° C.; average of 2 or 4 separate assays.
Source text: as §1, §2

The nature of data set [3]: Thermofluor thermal stability (melting transition) of MGLL. The settings on record: for Tm (midpoint of the melting transition): 0.05 mg/ml protein, 1,8-ANS. The format is physicochemical. From the text: The Thermofluor® assay is a powerful tool to screen for small molecule inhibitors interacting with a protein's active site or allosteric site. The assay detects small changes in the intrinsic melting temperature of proteins based on binding of ligands. Compounds that interact preferentially with the native form of the protein will increase the Tm, the temperature at which half of the protein is unfolded (Pantoliano et al. 2001). The technique monitors changes in the fluorescent intensity of dyes such as 1-anilinonaphthalene-8-sulfonic acid (1,8-ANS). The fluorescent dyes are quenched in aqueous environments but increase in fluorescence on binding to the hydrophobic core of denatured proteins.
Thermofluor® assays were conducted to characterize wt-MGLL (hMGLL 1-303) (SEQ ID NO: 3) and mut-MGLL (hMGLL 1-303 L169S, L176S) and evaluate if the MGLL mutants could be used for high-throughput screening using Thermofluor®. Three microliters of protein at a concentration of 0.05 mg/ml in 50 mM Pipes pH 7, 200 mM NaCl, 100 μM 1,8-ANS, and 0.001% Tween was added to pre-dispensed compound plates. Wells were overlaid with silicone oil (1 μL, Fluka, type DC 200) to prevent evaporation. Final compound concentrations varied from 150 to 0.15 μM. Assay plates were heated at a rate of 1° C./min for all experiments over a temperature range sufficient to measure protein unfolding. Fluorescence was measured by continuous illumination with UV light (Hamamatsu LC6) supplied via fiber optic and filtered through a custom band-pass filter (380-400 nm; >60D cutoff). Fluorescence emission was detected by measuring light intensity using a CCD camera (Sensys, Roper Scientific) filtered to detect emission at 500±25 nm, resulting in simultaneous and independent readings of all 384 wells. One or more images were collected at each temperature, and the sum of the pixel intensity in a given area of the assay plate was recorded vs temperature, and fit to standard equations to yield the Tm.

Data set [4] is described as follows: Size exclusion chromatography of MGLL purified in the absence of detergent (aggregation/monomer). In kind it is physicochemical. As to the method: A pilot purification of wt-MGLL (hMGLL 1-303) (SEQ ID NO: 3), performed in the complete absence of detergent, generated no protein (data not shown). A second purification of wt-MGLL (hMGLL 1-303) (SEQ ID NO: 3) was done with detergent in the lysis buffer only. Frozen cell pellets for wt-MGLL (hMGLL 1-303) (SEQ ID NO: 3) were thawed, resuspended, and lysed in Bugbuster® lysis buffer for 1 hour at 4° C. Bugbuster® lysis buffer is a proprietary lysis buffer from […] that contains detergent. The lysate was clarified by centrifugation at 40,000×g for 1 hr. No detergent was added at this point or during the rest of the purification. From this point forward, the purification protocol and buffers were the same as described below for mut-MGLL. An average of 2.2 mg of wt-MGLL (hMGLL 1-303) (SEQ ID NO: 3) per liter of cell culture was obtained.
Mutant MGLL (mut-MGLL) constructs were purified in the absence of detergent. Frozen cell pellets were thawed and resuspended in buffer A (50 mM Hepes buffer pH 7.5, 400 mM NaCl, 5% glycerol, 0.05% BME, 1× Complete EDTA-free protease inhibitor cocktail tablets (Roche)), dounce homogenized and mechanically lysed with a microfluidizer processor (Microfluidics). The extract was clarified by centrifugation at 40,000×g for 1 hr. The cleared lysate was loaded on a 1 ml His-Trap FF Crude column (GE-Healthcare) at 4° C. using the AktaXpress system. For larger preparations, a 5 ml His-Trap FF Crude column was used. The column was washed with 10-15 column volumes (CV) of buffer A containing 30 mM imidazole and mut-MGLL was eluted with 5 CV of 50 mM Hepes buffer pH 7.5, 400 mM NaCl, 5% glycerol, 0.05% BME, 400 mM imidazole. In most preparations, 30 mM imidazole was included in Buffer A from the beginning of the preparation to reduce non-specific binding on the His-Trap column. […] Fractions were analysed by SDS-PAGE. […] Purification yields were determined by Bradford assay using the protein assay kit from BioRad according to manufacturer's instruction with BSA as a standard (Bradford 1976).
(Size exclusion chromatography separates by hydrodynamic size, large species first.)

Data set [5] is described as follows: Circular dichroism structural analysis. The format is physicochemical. The settings on record: 5 μM protein, 10 mM cacodylic acid pH 7, 140 mM NaCl. The method, then:
Circular dichroism experiments were performed on a Circular Dichroism Spectrometer Model 202 from Aviv Instruments Inc. The CD scans of wt-MGLL (hMGLL 1-303) (SEQ ID NO: 3) and TEV cleaved mut-MGLL (hMGLL 1-303 L169S, L176S) (SEQ ID NO: 5) (5 μM protein in 10 mM cacodylic acid pH 7 and 140 mM NaCl) were measured from 200 to 260 nm. Temperature melts were monitored at 210 nm.
In general terms: Circular dichroism is widely used to follow secondary structure.

Setting [6] is: size exclusion, purified in the absence of detergent.

One may read the Km as the concentration of substrate that gives half-maximal velocity. For `CCCCC/C=C/C/C=C\C/C=C/C/C=C/CCCC(=O)Oc1ccc2ccc(=O)oc2c1` [C-A, Coumarin Arachidonate], the Km in data set [1] is over 30 µM.

B1: wt-MGLL.1-303: wild-type human MGLL isoform 2 amino acids 1-303 with N-terminal His tag and TEV site, SEQ ID NO: 3 (protein)
chain: MVDHHHHHHENLYFQGMPEESSPRRTPQSIPYQDLPHLVNADGQYLFCRYWKPTGTPKALIFVSHGAGEHSGRYEELARMLMGLDLLVFAHDHVGHGQSEGERMVVSDFHVFVRDVLQHVDSMQKDYPGLPVFLLGHSMGGAIAILTAAERPGHFAGMVLISPLVLANPESATTFKVLAAKVLNLVLPNLSLGPIDSSVLSRNKTEVDIYNSDPLICRAGLKVCFGIQLLNAVSRVERALPKLTVPFLLLQGSADRLCDSKGAYLLMELAKSQDKTLKIYEGAYHVLHKELPEVTNSVFHEINMWVSQRTATAGTASPP
modifications: N-terminal His tag and TEV site; Human
With B1, in data set [2], the Kcat was 1.13 s⁻¹ and the Km is 162 µM. Besides, in data set [3], the “quality of the melting transition” value is listed as “very poor transition” and the “Tm (midpoint of the melting transition)” value was 58 °C. Besides, the “aggregation by size exclusion chromatography (in words)” value in data set [4] (detergent in the lysis buffer only) is listed as “complete aggregation”. In data set [4] (setting [6]), this molecule returned an aggregation of 100%.

B2: mut-MGLL. 1-303, L169S, L176S: engineered human MGLL 1-303 with cap-domain mutations L169S, L176S; SEQ ID NO: 4, SEQ ID NO: 5 after TEV cleavage (protein)
chain: B1 chain with L185S, L192S
modifications: His tag and TEV site; SEQ ID 5 after TEV cleavage; Human
Regarding B2, in data set [5], the “CD scans 200 to 260 nm compared with wt-MGLL purified in the presence of detergent” value is on record as “similar”. Moreover, in data set [2], the Kcat stood at 0.8 s⁻¹ and the Km was 136 µM. For the same molecule, in data set [3], the “quality of the melting transition” value was “strong transition” and the “Tm (midpoint of the melting transition)” value amounted to 56.7 °C. This molecule displayed a monomer in data set [4] (setting [6]) of 90%.
